First the molecules themselves.
B3: 1D3 Mimotope Multimer H1 + C11 SKLKGKSGPEFHWFINVPPF (peptide)
peptide: SKLKGKSGPEFHWFINVPPF
notes: Chemically synthesized 20 amino acid fusion of two mimotopes; also called fusion mimotope
B5: anti-mCD19 (clone 1D3) IgG (antibody, V domains shown)
VH: EVQLQQSGAELVRPGTSVKLSCKVSGDTITFYYMHFVKQRPGQGLEWIGRIDPEDESTKYSEKFKNKATLTADTSSNTAYLKLSSLTSEDTATYFCIYGGYYFDYWGQGVMVTVSS
VL: DIQMTQSPASLSTSLGETVTIQCQASEDIYSGLAWYQQKPGKSPQLLIYGASDLQDGVPSRFSGSGSGTQYSLKITSMQTEDEGVYFCQQGLTYPRTFGGGTKLELK
notes: Anti-mouse CD19 IgG; biotinylated for sorting; also called 1D3 antibody; anti-mCD19 IgG
B6: 1D3 Mimotope (H1) SKLKGKSGPE (peptide)
peptide: SKLKGKSGPE
B11: 1D3 Mimotope Multimer H1 + E2 SKLKGKSGPEIRVLMSRVFA (peptide)
peptide: SKLKGKSGPEIRVLMSRVFA
notes: as for B3

Ends that are not written are not given here. * marks the point of attachment. Biotin = O=C1N[C@H]2[C@H](CS[C@H]2CCCCC(=O)*)N1

Assay [1] concerns the target T1, FMC63 IgG.
T1 construct: Murine monoclonal antibody to human CD19; also called FMC63 IgG antibody; biotinylated FMC63 IgG
Kind of assay: ELISA, N-terminally biotinylated peptide on streptavidin plate, FMC63 IgG. For orientation: In an ELISA, binding on a coated surface is turned into a signal by an enzyme label.
Target sequence in this assay (VH, as listed by the source, chain 1 of 2): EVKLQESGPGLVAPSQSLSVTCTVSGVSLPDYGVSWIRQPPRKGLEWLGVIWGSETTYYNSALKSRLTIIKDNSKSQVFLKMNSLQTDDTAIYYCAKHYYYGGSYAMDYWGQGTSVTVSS
Target sequence in this assay (VL, as listed by the source, chain 2 of 2): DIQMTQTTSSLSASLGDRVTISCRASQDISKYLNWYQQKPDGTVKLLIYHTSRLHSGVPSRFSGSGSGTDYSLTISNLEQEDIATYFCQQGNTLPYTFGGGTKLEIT

The target of assay [2] is B5. Kind of assay: ELISA with anti-mCD19 IgG (1D3). The protocol: (§1) Specifically, a library was generated using nested PCR and the primers in Table 1. […] For each round of enrichment, the top 0.5-1% of yeast were sorted. Following enrichment, isolated clones were subjected to Sanger sequencing. […] To further characterize the mimotope affinity, absolute binding affinity was measured by ELISA. Specifically, three mimotopes were selected for screening (Table 8). Of the selected sequences, two fusion mimotopes were chemically synthesized. Specifically, two mimotopes were fused to form a 20 amino acid peptide (Table 9).

Assay [3] has as its target B6. Kind of assay: ELISA, OD(450nm) against the concentration of 1D3 IgG; label under the circle curve (H1).
In assay [4] the target is B3. Kind of assay: ELISA, OD(450nm) against the concentration of 1D3 IgG; label beside the square curve (H1 + C11). The protocol:
as §1

The target in assay [5] is B11. Kind of assay: ELISA, OD(450nm) against the concentration of 1D3 IgG; label beside the triangle curve (H1 + E2). The protocol:
as §1

The target in assay [6] is B5. Kind of assay: yeast display selection with 1D3 IgG. As to the method: as §1
Assay [7] deals with T1, FMC63 IgG. Kind of assay: flow cytometry of yeast-displayed mutant with 5 µM FMC63 IgG. The protocol: (§2) Specifically, a representative mimotope, […] […] To generate mutations, two complementary oligos with the codon replaced at the desired site were denatured at 95° C. and annealed by slow cooling to 25° C. (decreasing by 0.5° C./second). The annealed oligos were treated with T4 PNK (T4 Polynucleotide Kinase) to add a terminal phosphate, and then ligated into digested pCT-CON2 vector. Positive clones having the correct oligo inserted were tested and transformed into competent EBY100 yeast cells.
Target sequence in this assay (VH, as listed by the source, chain 1 of 2): as the sequence (VH, as listed by the source, chain 1 of 2) above
Target sequence in this assay (VL, as listed by the source, chain 2 of 2): as the sequence (VL, as listed by the source, chain 2 of 2) above

Assay [8] concerns the target T1, FMC63 IgG. Kind of assay: flow cytometry of yeast-displayed mutant. As to the method: as §2
(In general: In flow cytometry, cells or beads pass a laser one at a time.)

For assay [9], the target named is T2, FMC63 scFv (biotinylated).
T2 construct: Whole scFv entry (VL-(G4S)3-VH); also called FMC63-scFv monomer; biotinylated FMC63 scFv
Kind of assay: flow cytometry (MFI) of yeast clone with biotinylated FMC63 scFv and streptavidin-PE.

Assay [10] concerns the target T2, FMC63 scFv. Kind of assay: yeast-display FACS titration with biotinylated FMC63 scFv.

T2 sequence (scFv, as listed by the source): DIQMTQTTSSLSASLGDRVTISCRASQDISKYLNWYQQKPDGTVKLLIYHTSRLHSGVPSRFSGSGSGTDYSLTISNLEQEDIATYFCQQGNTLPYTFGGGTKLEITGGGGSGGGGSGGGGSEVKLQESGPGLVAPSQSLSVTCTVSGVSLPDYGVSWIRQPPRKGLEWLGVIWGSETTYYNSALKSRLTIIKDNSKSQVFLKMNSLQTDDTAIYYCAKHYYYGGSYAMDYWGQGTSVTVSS

B1: biotinylated F12 derivative GGGGSGGGGSGGGGSASRICPWNCKEL (peptide)
peptide: Biotin-GGGGSGGGGSGGGGSASRICPWNCKEL
modifications: not fully specified (bridges); cysteine pairing not given here
notes: Free peptide loaded on a streptavidin coated plate for ELISA
The term Kd denotes the constant that tells how readily two partners part at equilibrium. On to B1, for which the affinity in the assay with FMC63 IgG [1], expressed as Kd, was 0.153 nM.

B2: biotinylated F12 derivative GGSGGGGSASRICPWNCKEL (peptide)
peptide: Biotin-GGSGGGGSASRICPWNCKEL
modifications: not fully specified (bridges); cysteine pairing not given here
notes: as for B1
In the assay with FMC63 IgG [1], B2 returned a Kd of 0.139 nM.
Regarding B3, the binding result in [2] is “binds”.

B4: biotinylated F12 derivative SASRICPWNCKEL (peptide)
peptide: Biotin-SASRICPWNCKEL
modifications: not fully specified (bridges); cysteine pairing not given here
notes: as for B1
For B4, in the assay with FMC63 IgG [1], binding was put at a Kd of 0.147 nM.
Regarding B5, the figures for the equilibrium dissociation constant (Kd) in assay [3], in assay [4] and in assay [5] were 190 nM, 102 nM and 6.7 nM, respectively.
Regarding B6, the binding result in [6] is “binds”.
Turning to RACPWSCREL (also called G9 X1 (Leu 2) to Ala) [FMC63 Mimotope Mutant RACPWSCREL], the binding result with FMC63 IgG [7] is given as “binds”.
For the molecule RLCPWSCRAL (also called G9 X4 (Glu 9) to Ala) [FMC63 Mimotope Mutant RLCPWSCRAL], in the assay with FMC63 IgG [7], the binding result is on record as “binds”.
Turning to RLCPWSCREA (also called G9 X5 (Leu 10) to Ala) [FMC63 Mimotope Mutant RLCPWSCREA], in the assay with FMC63 IgG [7], the binding result is “binds”.
For RLCPWACREL (also called G9 X2 (Ser 6) to Ala) [FMC63 Mimotope Mutant RLCPWACREL], the binding result in the assay with FMC63 IgG [7] is reported as “binds”.
On the same count and under the same terms, as for RLCPWSCAEL (also called G9 X3 (Arg 8) to Ala) [FMC63 Mimotope Mutant RLCPWSCAEL], the entry is “binds”.
As for FHWFINVPPF [1D3 Mimotope (C11) FHWFINVPPF], the binding result in [6] was “binds”.

B7: biotinylated F12 derivative GSGGGGSGGGGSASRICPWNCKEL (peptide)
peptide: Biotin-GSGGGGSGGGGSASRICPWNCKEL
modifications: not fully specified (bridges); cysteine pairing not given here
notes: as for B1
In turn, B7 registered a Kd with FMC63 IgG [1] of 0.134 nM.

B8: biotinylated F12 derivative GGGSASRICPWNCKEL (peptide)
peptide: Biotin-GGGSASRICPWNCKEL
modifications: not fully specified (bridges); cysteine pairing not given here
notes: as for B1
B8 came in with a Kd with FMC63 IgG [1] of 0.141 nM.

B9: FMC63 Mimotope Mutant RLCPWSACREL (peptide)
peptide: RLCPWSACREL
notes: also called G9 with one alanine inserted between the cysteines
Turning to B9, in the assay with FMC63 IgG [8], the binding result was “no binding (tested: 5 µM FMC63 IgG)”.

B10: FMC63 Mimotope Mutant RLCPWSAACREL (peptide)
peptide: RLCPWSAACREL
notes: also called G9 with two alanines inserted between the cysteines
In the case of B10, the binding result with FMC63 IgG [8] was “no binding (tested: 5 µM FMC63 IgG)”.
Consider RICPWNCKEL (also called F12 mimotope) [FMC63 Mimotope (F12) RICPWNCKEL], for which the Kd in the assay with FMC63 scFv [9] amounted to 45.5 nM; with FMC63 scFv [10], 42 nM.
As for IRVLMSRVFA [1D3 Mimotope (E2) IRVLMSRVFA], in assay [6], the binding result is on record as “binds”.
For the molecule B11, the binding result in [2] is “binds”.

The record behind these values is patent US20210338833A1 (MIT, published 2021).
